Biological target: huIgG1 Fc (dummy) K409D&K392D (human) [IgG part: P0DOX5]
Assay: co-expression in 293-6E with M315 scFv-Fc D399′K; E357′K, non-reduced SDS-PAGE (FIG. 10), band density

Substance “huIgG1 Fc (dummy) K409D&K392D (from UniProt P0DOX5 218-449)” has a percentage of Dummy Fc Homodimer yield of 20.9%.

Reference: patent US20100286374A1
